Experimental data taken from US20150025225A1 (SHIONOGI, published 2015).
Residue numbers refer to the chain shown, from its start. Where two headings read alike, the source gives them in different places. Values belong to the binder of their own block, whether it stands above or below them.

Legend:
[1] = target: T1, cynomolgus monkey EL-C2 tag (cynomolgus monkey, UniProt Q9Y5X9 21-500 (human entry), limits assumed); assay: cell-based or functional assay
T1 chain: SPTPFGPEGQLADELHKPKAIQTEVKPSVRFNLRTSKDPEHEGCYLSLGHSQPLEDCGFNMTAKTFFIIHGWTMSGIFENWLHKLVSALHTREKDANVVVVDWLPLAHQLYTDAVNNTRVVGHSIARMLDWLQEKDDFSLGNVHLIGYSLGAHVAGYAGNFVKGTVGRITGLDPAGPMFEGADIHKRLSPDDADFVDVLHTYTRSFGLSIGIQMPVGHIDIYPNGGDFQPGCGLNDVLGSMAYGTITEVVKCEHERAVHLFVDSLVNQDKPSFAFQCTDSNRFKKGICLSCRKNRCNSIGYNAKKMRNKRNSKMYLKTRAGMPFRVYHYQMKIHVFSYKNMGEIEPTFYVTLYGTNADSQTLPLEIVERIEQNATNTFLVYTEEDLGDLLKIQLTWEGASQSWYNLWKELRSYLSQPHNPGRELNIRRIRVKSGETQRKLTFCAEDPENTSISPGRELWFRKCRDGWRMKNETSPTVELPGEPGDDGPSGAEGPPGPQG

[2] = target: T2, Baboon EL-C2 tag (baboon, UniProt Q9Y5X9 21-500 (human entry), limits assumed); assay: cell-based or functional assay
T2 chain: T1 chain with A12E, G141E

[3] = target: T3, rabbit EL-C2 tag (rabbit); assay: cell-based or functional assay
T3 chain: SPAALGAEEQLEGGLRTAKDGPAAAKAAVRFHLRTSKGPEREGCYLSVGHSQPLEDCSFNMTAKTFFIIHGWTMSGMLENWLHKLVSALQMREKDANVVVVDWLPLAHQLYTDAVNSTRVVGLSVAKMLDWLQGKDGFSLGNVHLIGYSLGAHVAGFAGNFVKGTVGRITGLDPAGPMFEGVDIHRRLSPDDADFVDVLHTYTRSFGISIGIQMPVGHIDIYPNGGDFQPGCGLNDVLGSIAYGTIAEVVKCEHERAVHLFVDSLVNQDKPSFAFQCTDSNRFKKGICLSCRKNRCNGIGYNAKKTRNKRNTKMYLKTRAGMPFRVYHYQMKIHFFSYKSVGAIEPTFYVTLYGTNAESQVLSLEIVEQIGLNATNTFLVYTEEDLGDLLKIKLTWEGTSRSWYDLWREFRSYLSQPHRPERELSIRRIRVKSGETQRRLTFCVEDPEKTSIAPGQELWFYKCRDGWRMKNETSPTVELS

[4] = target: T1, cynomolgus monkey EL-C2 tag; assay: Biacore SPR; EL heparin extract captured by anti-C2-tag antibody on CM5, antibody as analyte, bivalent fit
Experimental: (§1) The binding affinities of anti-EL antibodies were measured using Biacore. Anti-C2-tag antibody was immobilized on a sensor chip CM5 (GE HealthCare) using amine-coupling and baboon EL heparin extract or cynomolgus monkey heparin extract diluted with HBS-P (GE Healthcare) was added and EL were captured on the sensor chip. Then anti-EL antibodies diluted with HBS-P were added and the binding affinities were calculated by bivalent fitting of BIAevaluation software (FIG. 9A-G).

[5] = target: T2, Baboon EL-C2 tag; assay: as above
Experimental: as §1

[6] = target: T1, cynomolgus monkey EL-C2 tag; assay: ELISA-type titration, A450 against antibody concentration; protocol not described in the text
[7] = target: T2, Baboon EL-C2 tag; assay: as above
[8] = target: T3, rabbit EL-C2 tag; assay: as above
[9] = target: T1, cynomolgus monkey EL-C2 tag; assay: Biacore SPR; EL captured by anti-C2-tag antibody, antibody as analyte, bivalent fit; column head prints nM, kd/ka gives M
Experimental: as §1

[10] = target: T2, Baboon EL-C2 tag; assay: as above
Experimental: as §1

[11] = target: T4, human EL[331-459]-mouse EL-C2 tag (human/mouse chimera, UniProt Q9WVG5 21-500 (mouse entry)); assay: cell-based or functional assay
T4 chain: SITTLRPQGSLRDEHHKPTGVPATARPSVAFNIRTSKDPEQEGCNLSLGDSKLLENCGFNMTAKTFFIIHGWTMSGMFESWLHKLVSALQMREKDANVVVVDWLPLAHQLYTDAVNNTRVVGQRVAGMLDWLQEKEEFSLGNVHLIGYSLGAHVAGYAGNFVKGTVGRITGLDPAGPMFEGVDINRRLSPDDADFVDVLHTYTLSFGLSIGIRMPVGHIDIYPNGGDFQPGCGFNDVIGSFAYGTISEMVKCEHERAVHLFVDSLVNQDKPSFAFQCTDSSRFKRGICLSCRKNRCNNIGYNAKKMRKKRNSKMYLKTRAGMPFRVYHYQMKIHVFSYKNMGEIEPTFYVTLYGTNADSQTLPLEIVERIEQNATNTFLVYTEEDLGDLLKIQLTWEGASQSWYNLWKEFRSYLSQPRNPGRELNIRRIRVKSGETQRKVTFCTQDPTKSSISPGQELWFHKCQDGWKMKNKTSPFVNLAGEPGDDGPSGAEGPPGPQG

[12] = target: T1, cynomolgus monkey EL-C2 tag; assay: ELISA-type titration, A450 against antibody concentration; protocol not described in the text
[13] = target: T2, Baboon EL-C2 tag; assay: as above
[14] = target: T3, rabbit EL-C2 tag; assay: as above
[15] = target: T4, human EL[331-459]-mouse EL-C2 tag; assay: as above
[16] = target: T5, human EL-411-459 fragment (human); assay: sandwich ELISA with human EL fragment lysate, as Example 10
T5 construct: Used as HEK293 lysate
T5 chain: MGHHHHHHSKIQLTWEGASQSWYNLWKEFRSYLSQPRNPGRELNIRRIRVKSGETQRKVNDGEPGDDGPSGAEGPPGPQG

[17] = target: T1, cynomolgus monkey EL-C2 tag; assay: ELISA-type titration, A450 against antibody concentration; protocol not described in the text
[18] = target: T3, rabbit EL-C2 tag; assay: as above
[19] = target: T1, cynomolgus monkey EL-C2 tag; assay: as above
[20] = target: T2, Baboon EL-C2 tag; assay: as above
[21] = target: T3, rabbit EL-C2 tag; assay: as above
[22] = target: T4, human EL[331-459]-mouse EL-C2 tag; assay: as above

- Neutralizing activity_IC50 [1]: 3 nM
- Neutralizing activity_IC50 [2]: 4.8 nM
- Neutralizing activity_IC50 [3]: 98 nM
- koff [4]: 0.00014 s⁻¹
- kon [4]: 140000 M⁻¹ s⁻¹
- koff [5]: 0.00021 s⁻¹
- kon [5]: 140000 M⁻¹ s⁻¹
- EC50 (read off the curve) [6]: ~0.005 µg/mL
- EC50 (read off the curve) [7]: ~0.01 µg/mL
- EC50 (read off the curve) [8]: ~0.01 µg/mL
- Kd [9]: 1 nM
- Kd [10]: ~1.5 nM
B1: 8F5 antibody (antibody, IgG2a, V domains shown)
VH: QVTLKESGPGILQPSQTLSLTCSFSGFSLSTSNMGVGWIRQPSGKGLEWLAHIWWNDYKYYNTALKSRLTISKDTSNNQVFLKIASLDTADTATYYCARIGGGTPLDYWGQGTSLTVSS
VL: DIQMAQSPSSLSASLGGKVTITCKASQDIHTYIAWYQHKPGKGPRLLMLYTSTLQPGIPSRFSGSGSGRDYSFSISNLEPEDIATYYCLQYDDLLWTFGGGTKLEIK

- Neutralizing activity_IC50 [1]: 4.2 nM
- Neutralizing activity_IC50 [2]: 5.7 nM
- Neutralizing activity_IC50 [3]: 85 nM
- Neutralizing activity_IC50 [11]: 6.9 nM
- koff [4]: 9.4e-05 s⁻¹
- kon [4]: 160000 M⁻¹ s⁻¹
- koff [5]: 0.00016 s⁻¹
- kon [5]: 250000 M⁻¹ s⁻¹
- EC50 (read off the curve) [12]: ~0.007 µg/mL
- EC50 (read off the curve) [13]: ~0.02 µg/mL
- EC50 (read off the curve) [14]: ~0.01 µg/mL
- EC50 (read off the curve) [15]: ~0.02 µg/mL
- binding result [16]: no binding
- Kd [9]: 0.59 nM
- Kd [10]: 0.64 nM
B2: 25E4 antibody (antibody, IgG2b, V domains shown)
VH: QVALKESGPGILQPSQTLSLTCSFSGFSLSTSGMGVGWIRQPSGKGLEWLAHIWWHGNKYYSTALKSRLTISKDTSNNQVFLKIASVDTADTATYYCARISDGYPLDYWGQGTSVTVSS
VL: DIQMTQSPSSLSASLGGKVTITCKASQDINKYIVWYQQKPGKGPRLLIHYTSTLQPGFPSRFSGSGSGRDYSLSITNLEPEDIATYYCLQYDNLLWTFGGGTKLEIK

- Neutralizing activity_IC50 [1]: 6.2 nM
- Neutralizing activity_IC50 [2]: 6.2 nM
- Neutralizing activity_IC50 [3]: 69 nM
- Neutralizing activity_IC50 [11]: 6.1 nM
- koff [4]: 0.00039 s⁻¹
- kon [4]: 140000 M⁻¹ s⁻¹
- koff [5]: 0.00012 s⁻¹
- kon [5]: 120000 M⁻¹ s⁻¹
- binding result [16]: binds
- Kd [9]: 2.8 nM
- Kd [10]: 1 nM
- EC50 (read off the curve) [17]: ~0.02 µg/mL
- EC50 (read off the curve) [18]: ~0.04 µg/mL
B3: 16A11 antibody (antibody, IgG1, V domains shown)
VH: QVTLKESGPGILQPSQTLSLTCSFSGFSLSTSGMGVGWVRQPSGKGLEWLAHIWWNDYYYYKTALKSRLTISKDTSNNQVFLKIASVDTVDTATYYCARMAPGTPFPSWGQGTLVTVSA
VL: B1 VL with A5T, H30N, T31R, M48I, L49H, D93I

- Neutralizing activity_IC50 [1]: 6.2 nM
- Neutralizing activity_IC50 [2]: 6.6 nM
- Neutralizing activity_IC50 [3]: 207 nM
- Neutralizing activity_IC50 [11]: 18 nM
- koff [4]: 9.9e-05 s⁻¹
- kon [4]: 180000 M⁻¹ s⁻¹
- koff [5]: 0.00014 s⁻¹
- kon [5]: 93000 M⁻¹ s⁻¹
- EC50 (read off the curve) [19]: ~0.006 µg/mL
- EC50 (read off the curve) [20]: ~0.02 µg/mL
- EC50 (read off the curve) [21]: ~0.02 µg/mL
- EC50 (read off the curve) [22]: ~0.03 µg/mL
- binding result [16]: binds
- Kd [9]: 0.55 nM
- Kd [10]: 1.5 nM
B4: 3B1 antibody (antibody, IgG1, V domains shown)
VH: QVTLKESGPGILQPSQTLSLTCSFSGFSLSTSGVGVGWIRQPSGKGLEWLAHIWWNDNKYYNTALKSRLTISKDTSNNQVFLKIASVDTADTATYFCARSYDGYPFDYWGQGTLVTVSA
VL: B2 VL with Q38H, Y50H, F58I, G64E, L73F, T76S, T85S, N93T, K107R
